B1: HDV Ribozyme (parent)
chain: GGCCGGCAUGGUCCCAGCCUCCUCGCUGGCGCCGGCUGGGCAACAUUCCGAGGGGACCGUCCCCUCGGUAAUGGCGAAUGGGACCCA

Variants of: B1
Test: self-cleavage, relative activity (ratio to wild type); higher = more cleavage; co-transcriptional

Variant | self-cleavage
GGCCGGCAUGGUCCCAGCCUCCUCGGUGGCGCCGGCUGGGCAACAUUCCGAGGGGACCGUCCCCUCGGUAAUCGCGAAUGGGACCCA | 0.492
GGCCGGCAAGGUCCCAGCCUCCUCGCUGGCGCCGGCUGGGCAACAUUCCGAGGGGACCGUCCCCUCGGUAAUCGCGAAUGGGACCCA | 0.227
GGCCGGCAUGGUCCCAGCCUCCUCGUUGGCGCCGGCUGGGCAACAUUCCGAGGGGACCGUCCCCUCGGUAAUGGCGAAUGGAACCCA | 0.769
GGCCGGCAUGGUCCCAGCCUCCUCGCUGGCGCCGGCUGGGCAACAUUCCGAGGGGACCGGCCCCUCGGUAAUGGCGAAUGGGAUCCA | 0.798
GGCCGGCAUUGUCGCAGCCUCCUCGCUGGCGCCGGCUGGGCAACAUUCCGAGGGGACCGUCCCCUCGGUAAUGGCGAAUGGGACCCA | 0.166
GGCCGGCAUGGUCCCAGCCUCCUCGCUGGCGCCGGCUGGGCGACAUUCCGAGGGGACCGUCCCCUCGGUAAUGGCGAAUGAGACCCA | 0.106
GGCCGCCAUGGUCCCAGCCUCCUUGCUGGCGCCGGCUGGGCAACAUUCCGAGGGGACCGUCCCCUCGGUAAUGGCGAAUGGGACCCA | 0
GGCCGGCAUGGUCCCAGCCUCCUGGCUGGCGUCGGCUGGGCAACAUUCCGAGGGGACCGUCCCCUCGGUAAUGGCGAAUGGGACCCA | 0.0773
GGCCGGCAUGGUCCCAGCCUCCUCGCUUGCGCCGGCUGGGCAACAUUCCGAGGGGACCGUCCCCUCGGUAAUGUCGAAUGGGACCCA | 0.0639
GGCCGGCAUGGUCCCAGCCUCCUCGCUGGCGCCGGCUGGGCAACAUUCCGAGGAGACCGUCCCCUCGGUAAUGGCGAAUGGGACCGA | 1.07
GGCCGGCAUGGUCCCAUCCUCCUCGCUGGCGCCGGCUGGGCAACAUUCCGAGGGGACCGUCCCCUCGGUAAUGUCGAAUGGGACCCA | 0.217
GGCCGGCAUGGUCGCGGCCUCCUCGCUGGCGCCGGCUGGGCAACAUUCCGAGGGGACCGUCCCCUCGGUAAUGGCGAAUGGGACCCA | 0.554
GGCCGGCAUGGUCCCAGCCUCCUCGCUGGCGCCGGCUGGUCAACAUUCCGAUGGGACCGUCCCCUCGGUAAUGGCGAAUGGGACCCA | 0.576
GGCCGGCCUGGUCCCAGCCUCCUCGCUGGCGCCGGCUGGGCAACAUUCCGAGGGGACCGUCCCCUCGGUAAUGUCGAAUGGGACCCA | 0.475
GGCCGGCAGGGUCCCAGCCUCCUCGCUGGCGCCGGCUGGGCAACAUUCCGAGGGGAACGUCCCCUCGGUAAUGGCGAAUGGGACCCA | 0.831
GGCCGGCAUGGUCCCAGACUCCUCGCUGGCGCCGGCUGGGCAACAUUCCGAGGGGACCGUCCCCUCGGUAAUGGCGAAUCGGACCCA | 0
GGCCGGCCUGGUCCCAGCCUCCUCGCCGGCGCCGGCUGGGCAACAUUCCGAGGGGACCGUCCCCUCGGUAAUGGCGAAUGGGACCCA | 0.739
GGCCGACAUGGUCCCAGCCUCCUCGCUGGCGCCGGCUGGACAACAUUCCGAGGGGACCGUCCCCUCGGUAAUGGCGAAUGGGACCCA | 0.505
GGCCGGCAUGGUUCCAGCCUCCUCGCUGGCGCCGGCUGGGCAACAUUCCGAGGGGGCCGUCCCCUCGGUAAUGGCGAAUGGGACCCA | 0.573
GGCCGGCGUGGUCCCAGCCUCCUCGCUGGCGCCGGCUGGGCAACAUUCCGAGGGGACCGUCCCCUCGGUAAUGGCGACUGGGACCCA | 0.166
GGCCGGCUUGGUCCCAGCCUCCUCGCUGGCGCCGGCUGGGCAACAUUCCGAGGGGACCGUCCCCUCGGUCAUGGCGAAUGGGACCCA | 0.692
GGCCGGCAUGGUCCCAGCCUCCUCGCCGGCGCCGGCUGGGCAACAUUCCCAGGGGACCGUCCCCUCGGUAAUGGCGAAUGGGACCCA | 0.858

Variant | self-cleavage
GGCCGGCAUAGUCCCAGCCUCCUCGCUGGCGCCGGCUGGGCAACAUUCCGACGGGACCGUCCCCUCGGUAAUGGCGAAUGGGACCCA | 0.812
GGCCGGCAUGGUCCCAGCCUCCUCGCUGGCGCCGGCUGGGCAACACUCCGAGGGGACCGUCUCCUCGGUAAUGGCGAAUGGGACCCA | 0.918
GGCCGGCAUGGUCCCAGCCUCCUCGCUGGCGCCGGCUGGGCAAUAUUCCGAGGGGACCGUCCCCUCGGGAAUGGCGAAUGGGACCCA | 0.957
GGCUGGCAUGGUCCCAGCCUCCUCGCUGGCGCCGGCUGGGCAACAUUCCCAGGGGACCGUCCCCUCGGUAAUGGCGAAUGGGACCCA | 0.917
GGCCGGCAUGGUCCCAGCCUCCUCGCUGGCGCCAGCUGGGCAACAUUCUGAGGGGACCGUCCCCUCGGUAAUGGCGAAUGGGACCCA | 0.3
GGCCGGCAUGGUCCCAGCCUCCUCGCUGGUGCCGGCUGGGCAACAUUCCGAGGGGACCGUCCCCUCGAUAAUGGCGAAUGGGACCCA | 0.546
GGCCGGCAUGGUCCCAGCCUCCUCGCUGUCGCCGGCUGGGCAACAUUCCGAGGGGAGCGUCCCCUCGGUAAUGGCGAAUGGGACCCA | 0.198
GGCCGGCAUGGUCCCAGCCUCCUCGCUGGCGGCGGCUGGGCAACAUUCCGAGGGGACCGUCCCCUCGGUAAUGGCGAAUGGGAGCCA | 0.0594
GGCCGGCAUGGUCCCAGCCUCCUCGCUGGCGCCGGCUGGGCAACAUUCCGAGGGGACCGUCCCAGCGGUAAUGGCGAAUGGGACCCA | 0.937
GGCCGGCAUGGUCCCAGCCUCCUCGCUGGCGCGGGCUGGGCAACAUUCCGAGGGGACCAUCCCCUCGGUAAUGGCGAAUGGGACCCA | 0.188
GGCCGGCAUGGUCCCAGCCUCCUCGCUGGCGCCGGCUGGGCAACAUUCCGAGGGGACCAUCCCCUCGGUAAUGGUGAAUGGGACCCA | 0.159
GGCCGGCAUGGUCACAGCCGCCUCGCUGGCGCCGGCUGGGCAACAUUCCGAGGGGACCGUCCCCUCGGUAAUGGCGAAUGGGACCCA | 0
GGCCGGCAUGGUCCCAGCCUCCUCGCUGGCGCCUGCUGGGCAACAUUCCGAGGGGACCGUCCCCUCGGUAAUGGCGAAUGGGAACCA | 0.176
GGCCGGCAUGGUCCCAGCCUCCUCGCUGGCGCCGGCUGGGCAACAUUCCGAGGGGACCGUCCCCUCGGGAAGGGCGAAUGGGACCCA | 0.997
GGCCGGCAUGGUCCCAGCCUCCUCGCUGGCGCCGGCUGGGCAAGAUUCCGAGGGGACCCUCCCCUCGGUAAUGGCGAAUGGGACCCA | 0.95
GGCCGGCAUGGCCCCAGCCUCCUCGCUGGCGCCGGCUGGGCAACAUUCCGAGGGGACCGUCCCUUCGGUAAUGGCGAAUGGGACCCA | 0.665
GGCCGGCAUGGGCCCAGCCUCCUCGCUGACGCCGGCUGGGCAACAUUCCGAGGGGACCGUCCCCUCGGUAAUGGCGAAUGGGACCCA | 0.0978
GGCCGGCAUGGUCCCAGCCUCCUCGCUGGCGCCGGCUGGGCAACAUUCCGAGGGGACCGUCCCCUCGGUUAUGGAGAAUGGGACCCA | 0.0898
GGCCGGCAUGGUCCCAGCCUCCUCGCUGGCGCCGGCUGGGCAACAUUCCGAGGCGACCGUCCCCUGGGUAAUGGCGAAUGGGACCCA | 0.591
GGCCGGCAUGCUCCCAGCCUCCUCGCUGGCGCCGGCUGGGCAACAUUCCGAGGGGACCGUCCCCUCGGUAAUGGCGAAUGGGACCCA | 0.314
GGCCGGCAUGGUCCCAGCCUCCUCGCUGGCGCCGGCUGGGCAACAUUCCGAGGGGACCGUCCCCUCGGUAAUGGGGAAUGGGCCCCA | 0.489
GGCCGGCAUGGUCCUAGCCUCCUCCCUGGCGCCGGCUGGGCAACAUUCCGAGGGGACCGUCCCCUCGGUAAUGGCGAAUGGGACCCA | 0.0723

Variant | self-cleavage
GGCCGCCAGGGUCCCAGCCUCCUCGCUGGCGCCGGCUGGGCAACAUUCCGAGGGGACCGUCCCCUCGGUAAUGGCGAAUGGGACCCA | 0.208
GGCCGGCAUGGUCCCAGCCUCCUCGCUGGCGCCGACUGGGCAACAUUCCGAGGGGACCGUCCCCUCGGUAAUGGCGAAUGGGGCCCA | 0.258
GGCCGGCAUGGUCCCAGCCUCCUCGCUGGCGCCGGCUGGGCAAGAUUCCGAGGGGACCGUCCCCACGGUAAUGGCGAAUGGGACCCA | 0.443
GGCCGGCAUGGUCCCAGACUCCUCGCUGGCGCCGGCUGGGCAACAUUCCUAGGGGACCGUCCCCUCGGUAAUGGCGAAUGGGACCCA | 0.197
GGCCGGCAUGGUCCCAGCCUCCUCGCUGGCGCCGGCUGGGCAACAUUCCGAGGGGACCGUCCCUUCGGUAAUGGCGAAUGAGACCCA | 0.318
GGCAGGCAUGGUCCCAGCCUCCUCGCUGGCGCCGGCUGGGCAACAUUCCGAGGGGACCGUCCCCUCGGUAAUGGCUAAUGGGACCCA | 0.554
GGCCGGCAUGGACCCAGCCUCCUCGCUGGCGCCGGCUGGGCAACAUUCCGAGGGGACCGUCCCCUCGGUGAUGGCGAAUGGGACCCA | 0.277
GGCCGGCAUGGUCCCAGCCUCCACGCUGGCGCCGGCUGGGCAACAUUCCGAUGGGACCGUCCCCUCGGUAAUGGCGAAUGGGACCCA | 0.819
GGCCGGCAUGGUCCCAGCCUCCUCGCUGGCGCCGGCUGGGCAACAUUCCGAGGGGAUCGUCCCCUCGGUAAUGGCGAAUGCGACCCA | 0.0604
GGCCGGCAUGGCCCCAGCCUCCUCGCUGGCGCCGGCUGGGCAACAUUCCGAGGGGACCGUCCCCUCGGUAAUGGCGAAUGGGACCCC | 0.479
GGCCGGCAUGGUCCCAGUCUCCUCGCUGGCGCCGUCUGGGCAACAUUCCGAGGGGACCGUCCCCUCGGUAAUGGCGAAUGGGACCCA | 0.0791
GGCCGGCAUGGUCCCAGGCUCCUCGCUGGCGCCGGCUGGGCAACAUUCCGCGGGGACCGUCCCCUCGGUAAUGGCGAAUGGGACCCA | 0.208
GGCCAGCAUGGUCCCAGCCUCCUCGCUGGCGCCGGCUGGUCAACAUUCCGAGGGGACCGUCCCCUCGGUAAUGGCGAAUGGGACCCA | 0.119
GGCCGGCCUGGUCCCAGUCUCCUCGCUGGCGCCGGCUGGGCAACAUUCCGAGGGGACCGUCCCCUCGGUAAUGGCGAAUGGGACCCA | 0.369
GGCCGGCAUGGUCCCGGCCUCCUCGCUGGCGCCGUCUGGGCAACAUUCCGAGGGGACCGUCCCCUCGGUAAUGGCGAAUGGGACCCA | 0.375
GGCCGGCGUUGUCCCAGCCUCCUCGCUGGCGCCGGCUGGGCAACAUUCCGAGGGGACCGUCCCCUCGGUAAUGGCGAAUGGGACCCA | 0.431
GGCCCGCAUGGUCCCAGCCUCCGCGCUGGCGCCGGCUGGGCAACAUUCCGAGGGGACCGUCCCCUCGGUAAUGGCGAAUGGGACCCA | 0.0615
GGCCGGCAUGGUCCCAGCCUCCUCGCUGGCGCCGGCUGGGCAACAUUCCGAGGGGACCGUCCCCUCGGUAAUGGCGAAUGGGCCCCA | 0.458
GGCCGGCAUGGUCCCAGUCUCCUCUCUGGCGCCGGCUGGGCAACAUUCCGAGGGGACCGUCCCCUCGGUAAUGGCGAAUGGGACCCA | 0.0297
GGCCGGCAUGGUCCCAGCCUCCUCGCUGGCGCCGGCUGUGCAACAUUCCGAGGGGACCGUCCCCUCGGUAAUGGCGUAUGGGACCCA | 0.102

— the RNAGym collection of RNA variant scans (doi:10.7554/elife.80360)
